These results are taken from patent US10752675B2, “Compounds for treating the remyelination blockade in diseases associated with the expression of HERV-W envelope protein” (GENEURO S.A., priority 2012, dated 2020).

In this assay the test system is MSRV-Env induced EAE in C57BL/6 mice. The assay can be described thus: EAE clinical score with intravenous MSRV-Env challenge, Example 3.B. It counts as in vivo. The source says:
Animals were weighed and clinically scored 5 days per week according to the following criteria: 0=no signs; 1=tail paralysis or hyper-reflex of hind limb(s) or unilateral hind limb weakness; 2=bilateral hind limb or forelimb weakness; 3=plus unilateral paralysis or major deficit; 4=complete hind limb or forelimb paralysis; 5=plus partial paralysis or major deficit of opposite limbs; 6=moribund or dead. These were adapted from standard criteria, in order to reflect the more rapid induction of brain and cervical cord lesions with this model.
When not specified, all materials and methods were as described for Example 3A.
All mice received three injections s.c. on the neck at DO, on the dorsal flank at D7 and D14. Here, mice from Group A were injected with 200 μg/mouse of MOG and IFA only, without Env, thus constituting a negative control group without EAE in the present series (ctrl −). The positive control group with untretated EAE in the present series is represented by Group B (ctrl +). Other groups were injected with 200 μg of MOG/mouse+MSRV-ENV (60 μg)+IFA, with treatments as indicated in the above summarized presentation. […]
For Groups G and H receiving DMF, we have previously determined the volume of daily water consumption by each mouse and it has been realized that (in our condition), each mouse consumed around 3.5 ml drinking water per day. […]

Entries after “also recorded” stand apart in the source; their conditions may differ.

B1: GNbAC1: recombinant humanized anti-Env IgG4 monoclonal antibody comprising the CDRs of SEQ ID No. 1 to 6 (antibody, chains of the INN, looked up, V domains shown)
VH: QVQLVQSGAEVKKPGSSVKVSCKASGYTFTDYEMHWVRQAPGQGLEWIGAVAPETGGTAYNQKFKGRATITADKSTSTAYMELSSLRSEDTAVYYCTSTVVPFAYWGQGTLVTVSS
VL: QIQLTQSPSSLSASVGDRVTITCSASSSVSYMYWYQQKPGKAPKAWIYRTSNLASGVPSRFSGSGSGTDYTLTISSLQPEDFATYYCQQYQSLPLTFGGGTKVEIK
B1: the “EAE clinical score after iv MSRV-Env challenge (20 μg)” value (GNbAC1 200 μg at day 12, alone or with SMT (I.P. twice a week) or DMF (2 mg daily in drinking water)) was “transient clinical impairment” and the “EAE clinical score after iv MSRV-Env challenge (20 μg)” value (GNbAC1 500 μg at day 12, alone or with SMT or DMF (2 mg daily in drinking water)) was “very efficient in conferring resistance; also recorded: best clinical efficiency”.
